Measurements reported in the supplement of paper PMC9170038.

Test system: MS2 coat protein
Assay: apparent KD of MS2 coat protein; designed switch direction (-1 OFF switch, 1 ON switch): -1; higher = weaker reporter binding
Outline: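 On Illumina chips, designed RNA switches with common flanks were made by stalled E. coli RNA polymerase. Titrations with SNAP-549-labelled MS2 coat protein, doubling from 0.7 or 1.5 nM to 3 µM, were done with no input, with 200 uM small-molecule ligand, or with an oligonucleotide input. Apparent KD is the median per design over clusters, from curve fits of normalised cluster fluorescence.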

[1] = Eterna round: R95, input ligand: FMN 200 uM
[2] = Eterna round: R95, input ligand: microRNA oligo, concentration not stated
[3] = Eterna round: R95, input ligand: none

Sequence	apparent KD of MS2 coat protein [1] [nM]	apparent KD of MS2 coat protein [2] [nM]	apparent KD of MS2 coat protein [3] [nM]	apparent KD of MS2 coat protein (input ligand: FMN 200 uM) [nM]	apparent KD of MS2 coat protein (input ligand: none) [nM]	apparent KD of MS2 coat protein (input ligand: microRNA oligo, concentration not stated) [nM]
AGUAGUAGUAUCCGAUCUUACAUGAGGAUCACCCAUGUAGCUAGACGUGCACGCGAUGCUCGUCAGACUACCAGAUG [salish99_TOv1_r3_051] (puzzle: Sensor v3, turn-off variant 1)	148	230	277	–	–	–
AGUAGUUCAGGAUAUGAUGUUAAAUACAUGAGGAUCACCCAUGUAGAUCCUGAAUUUACAUCAGAAGGGAAUAACU [JR_Ex5_Sub082] (Eterna round: R97, puzzle: Exclusion 5)	–	–	–	91.7	25.5	–
AGUAUGUCAGGAUAUCUCGGGUAGCCCACAACGACUACCGAAGAGAAGGGACAUGAGGAUCACCCAUGUACCAU [EX4 B.15] (Eterna round: R97, puzzle: Exclusion 4)	–	–	–	29.9	34.3	–
AGUCGAAAGAUCCACAUGGACAUGAGGAUCACCCAUGUGCAAGCCUUUUUCUCGUCACUAUCGUCAAAAGACGAUAG [Omei Mir Offv1 A6] (Eterna round: R97, puzzle: Sensor, turn-off variant 1)	–	–	–	185	234	–
AGUCGGCGAGGAUAUACAUGAGGAUCACCCAUGUAUGAUCCUAGACCUGUAGGUCCAUGUAGAAGGCGCUGACA [Exclusion 3 - Was a mod at one point v.3] (puzzle: Exclusion 3)	–	66.2	–	–	–	–
AGUGCGUAUGUGAGGAUAUGCUGGUCCUUGGAUCAGCAGAAGGCACAUGAGGAUCACCCAUGUGGUGUCGUACA [salish99_Bmod_Ex4_006] (puzzle: Brourd's mod of Exclusion 4)	–	320	–	–	–	–
AGUGCUAACACGAAAGUGUUAGUACAAUAAGCUUGUGAAACAUGAGGAUCACCCAUGUCCUCAUAAGCUCGUCUUAU [salish99_TOv2_r3_014] (puzzle: Sensor v3, turn-off variant 2)	17.8	651	17.7	–	–	–
AGUGCUGACACGUUGGUGUUAGUACCAUAAGCUUGUGAUACAUGAGGAUCACCCAUGUCCUCAUAAGCUCGUCUUAU [salish99_TOv2_r2_097] (puzzle: Sensor v3, turn-off variant 2)	28.6	669	26.8	–	–	–
AGUGCUGCAGGAUAUUCUAUUAAUUACAUGAGGAUCACCCAUGUGAAUGGACAAGGGUGUGAAGAAGGGUGGUACG [Omei Ex5 A17i] (Eterna round: R97, puzzle: Exclusion 5)	–	–	–	262	496	–
AGUGGUAGUAUCCGAUCCUACAUGAGGAUCACCCAUGUAGCUAGACGUGCACGCGAUGCUCGUCAGACUACCAGAUG [salish99_TOv1_r3_040] (puzzle: Sensor v3, turn-off variant 1)	16.5	14.1	18.1	–	–	–
AGUUGUAAAGAGGAUAUCCAUCCCGGCAUCCAUGGAGAAGGUUUAACAUGAGGAUCACCCAUGUCAUGAUCCUC [Eternabot (L2) Solution 3] (Eterna round: R97, puzzle: Exclusion 6)	–	–	–	824	692	–
AUAAAACGUGUAGGAUAUGCGUGGCGAAGCUAUGCAGAAGGACAUGAGGAUCACCCAUGUUCAAGCGUCUGCGUACAGAUGCUA [JL eng1 1.35 mod 6] (Eterna round: R96, puzzle: Exclusion NG 1)	–	–	–	16.9	14.5	14.1
